B1: VTI1B (parent)
chain: NKLLLSIIILLELAILGGLVYYKF
B2: ZNF449 (parent)
chain: TLHQRTHTEERPFKCNYCGKSFRQ

Variants of: B1
Assay: protein stability index of a GFP-peptide fusion (GPS, HEK-293T) (PSI 1-6); higher = more stable
Settings: c terminus: a fixed tail appended
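Further: lentivirally expressed fusions sorted by FACS into six bins by GFP to DsRed ratio, PSI derived from sequencing read proportions per bin multiplied by bin number.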

Variant | protein stability index
K2T | 2.66
K2Q | 4.47
K2R | 2.99
K2S | 2.46
K2W | 2.8
K2P | 2.43
K2H | 2.48
K2N | 1.92
K2V | 3.38
K2A | 3.74
K2E | 2
K2D | 2.35
K2Y | 3.38
K2M | 2.6
K2C | 2.17
K2I | 3.89
K2F | 3.52
S6R | 3.55
S6T | 3.52
S6L | 2.02
S6A | 3.54
S6N | 2.47
S6K | 2.63

Variant | protein stability index
S6D | 2.42
S6F | 2.67
S6G | 1.88
S6W | 2.11
S6H | 2.51
S6C | 3.11
S6Y | 2.76
S6E | 3.51
S6M | 2.86
S6Q | 3.32
S6V | 2.5
S6I | 1.85
S6P | 3.12
L4A | 3.17
L4Q | 3.91
L4I | 2.94
L4C | 2.35
L4N | 2.28
L4D | 3.75
L4V | 2.82
L4M | 1.8
L4K | 2.39
L4F | 3.51

Variant | protein stability index
L4E | 2.47
L4W | 2.25
L4S | 2.38
L4G | 2.29
L4H | 3.22
L4T | 1.51
L4Y | 2.34
N1W | 3.84
N1G | 3.29
N1V | 2.54
N1P | 1.77
N1H | 3.67
N1S | 2.63
N1Q | 2.12
N1K | 1.85
N1M | 2.75
N1L | 2.74
N1E | 4.24
N1I | 2.97
N1D | 3
N1C | 3.66
N1A | 3.04
N1F | 2.82

Variant | protein stability index
N1R | 2.99
N1T | 3.56
N1Y | 2.36
I8H | 4.21
I8D | 3.18
I8P | 2.61
I8A | 3.36
I8F | 2.03
I8K | 2.87
I8Q | 3.49
I8Y | 3.31
I8E | 2.35
I8W | 2.33
I8S | 3.02
I8R | 1.95
I8T | 3.41
I8M | 2.81
I8G | 1.21
I8V | 2.56
I8L | 3.04
I8N | 3.11
I9E | 2.85
I9Q | 3.18

Variant | protein stability index
I9D | 3.1
I9T | 2.58
I9P | 3.12
I9W | 1.51
I9S | 4.04
I9F | 2.03
I9R | 3.19
I9M | 3.54
I9K | 3.22
I9H | 2.47
I9N | 3.49
I9L | 2.16
I9G | 2.8
I9V | 3.42
I9C | 2.97
I9Y | 2.38
L5V | 2.08
L5C | 2.61
L5Q | 4.28
L5A | 2.22
L5K | 2.14
L5E | 4.19
L5Y | 3.05

Variant | protein stability index
L5H | 3.13
L5W | 1.86
L5I | 3.01
L5D | 2.64
L5R | 1.8
L5P | 2.39
L5F | 2.55
L5N | 3.71
L5T | 3.88
L3R | 3.98
L3G | 2.83
L3P | 3.24
L3N | 3.2
L3T | 2.98
L3W | 2.79
L3K | 1.85
L3Y | 3.55
L3H | 3.76
L3S | 1.78
L3E | 2.84
L3V | 3.79
L3Q | 2.99
L3I | 2.78

Variant | protein stability index
L3D | 3.73
L3C | 2.54
L3A | 2.92
L3M | 2.52
I7E | 1.86
I7R | 3.87
I7D | 2.84
I7N | 2.1
I7F | 2.31
I7K | 2.41
I7V | 2.32
I7G | 3.04
I7Y | 2.74
I7M | 3.23
I7W | 3.61
I7C | 2.9
I7T | 3.78
I7Q | 2.44
I7H | 2.65
I7L | 3.54
I7A | 2.32

Variants of: B2
Assay: as above
Settings: c terminus: a fixed tail appended

Variant | protein stability index
R5M | 1.76
R5W | 2.15
R5E | 3.05
R5G | 1.83
R5P | 2.12
R5A | 2.44
R5Y | 2.4
R5N | 1.65
R5D | 2.91
R5L | 2.24
R5S | 2.45
C15D | 3.87
C15L | 1.4
C15A | 2.49
C15H | 3.4
C15T | 3.29
C15R | 2.61
C15V | 2.67
G19Q | 2.96
G19S | 2.06
G19E | 2.68
G19A | 2.14
G19L | 2.72
G19I | 3.3
G19K | 2.79

Variant | protein stability index
S21Q | 2.27
S21R | 2.38
S21C | 2.02
S21T | 2.91
S21G | 1.82
S21I | 2.26
S21F | 1.68
S21M | 2.19
S21V | 2.29
C18G | 3.02
C18V | 2.12
C18M | 2.72
C18N | 3.68
C18D | 3.48
C18S | 3.17
C18Q | 2.26
C18A | 3.61
C18E | 3.78
C18Y | 2.43
C18L | 2.61
H3P | 2.66
H3F | 2.47
H3G | 2.4
R23H | 2.79
R23I | 3.2

Variant | protein stability index
R23M | 2.8
R23C | 4.7
R23G | 2.27
R23V | 2.15
R23S | 2.67
R23K | 2.97
R23T | 2.7
R23F | 2.21
R23L | 2.4
F13Q | 2.92
F13S | 2.26
F13L | 2.07
F13H | 1.39
F13R | 1.69
F13I | 3.01
F13Y | 2.22
F13C | 3.05
F13G | 2.79
N16W | 2.04
N16M | 2.1
N16Q | 2.98
N16K | 2.76
N16E | 2.13
N16G | 1.95
N16A | 2.44

Variant | protein stability index
N16I | 2.27
N16V | 2.86
N16T | 2.67
T1L | 2.04
T1K | 3.28
T1M | 2.39
T1E | 2.64
T1I | 2.21
T1Q | 2.19
T1D | 2.46
T1C | 3.64
T1F | 2.08
P12S | 2.52
P12G | 2.52
P12C | 2.94
P12K | 2.89
P12F | 2.25
P12R | 2.21
P12M | 2.45
Y17C | 2
Y17W | 2.61
Y17S | 2.55
Y17M | 2.4
Y17P | 2.98
Y17I | 2.14

Variant | protein stability index
Y17T | 2.62
Y17N | 3.21
Y17K | 2.67
H7E | 2.5
H7G | 1.97
H7L | 2
H7Q | 2.88
H7S | 2.4
H7V | 4.2
H7I | 2.37
T6A | 2.38
T6F | 1.76
T6S | 3.12
T6Q | 2.54
T6C | 3.06
T6W | 2
R11E | 3.24
R11N | 2.42
R11D | 3.19
R11H | 2.53
R11C | 2.24
R11K | 2.5
R11P | 2.12
R11T | 2.33
E9H | 2.71

Variant | protein stability index
E9Q | 2.72
E9D | 2.15
E9A | 2
E9Y | 2.19
E9N | 1.88
Q4M | 2.08
Q4F | 2.42
Q4Y | 2.03
Q4L | 1.9
Q4H | 1.73
Q4T | 2.67
Q4N | 2.75
E10P | 1.91
E10T | 2.25
E10S | 2.1
E10G | 1.18
E10I | 3.39
E10L | 1.55
F22A | 3.02
F22T | 2.49
F22N | 3.51
F22E | 3.02
F22G | 2.35
F22I | 2.02
T8W | 1.82

Variant | protein stability index
T8I | 2.56
T8P | 2.4
T8M | 2.6
T8L | 1.64
T8A | 2.29
T8F | 2.34
Q24H | 2.12
Q24R | 1.67
Q24N | 2.27
Q24I | 1.68
Q24W | 2.12
Q24P | 2.87
Q24E | 2.88
K14Y | 1.93
K14F | 2.85
K14W | 2.1
K14L | 1.73
L2V | 2.4
L2T | 2.27
L2H | 2.45
K20T | 2.58
K20D | 2.83
K20M | 2.79
K20Y | 1.9
K20E | 1.79
